According to publication PMC10620215:

Molecular target: EcbAgaN (Escherichia coli long-B pAgo-associated nuclease), N-terminal 6xHis tag (Escherichia coli)
Experiment: SEC-MALS; EcbAgaN, already purified by SEC, loaded onto Superdex 200 10/300 GL in 20 mM Tris-HCl pH 7.5, 250 mM NaCl, 0.5 mL/min; BSA monomer as standard

stoichiometry N: 2
Substance: EcbAgaN (Escherichia coli long-B pAgo-associated nuclease), N-terminal 6xHis tag (enzyme)
